Measurements published in patent US12269859B2, “Synthetic immune receptors and methods of use thereof” (Angeles Therapeutics, Inc., priority 2016, dated 2025).

What was measured:
SKOV-3 cells = test: SKOV-3 intraperitoneal xenograft in NSG mice (survival); format: in vivo; details: NSG mice (n = 3), 1×10^6 SKOV-3 cells intraperitoneally, 5 million T cells intravenously
Procedure: Human peripheral blood T cells isolated using CD3 magnetic beads were infected with lentiviruses expressing the indicated SIR constructs targeting Folate receptor 1 (FR1), L1CAM and Epcam1. On day 1, the NSG mice were sub-lethally irradiated at a dose of 175 cGy. 24 hours post irradiation (day 2), mice were injected with 1×10^6 SKOV-3 cells intraperitoneally. On day 3, the mice were treated intravenously with 5 million indicated CAR-T cells. Beginning On day 4, mice were injected with human IL-2 i.p. at a dose of 400 IU/mice every alternate day after the injection CAR-T cells till the death of all mice in control group.

[1] = tested on: target antigen-expressing cell line; test: Jurkat NFAT-GFP assay, coculture with target cell lines expressing the respective target antigen (summary Table 10A); format: cell-based, human; parameters: key: The signs +/−, +, 2+ etc. after the name of the cell lines indicate the relative degree of positivity on the Jurkat-NFAT-GFP assay as measured by the % GFP positive cells; +: relative degree of positivity on the Jurkat-NFAT-GFP assay as measured by the % GFP positive cells; 2+: relative degree of positivity on the Jurkat-NFAT-GFP assay as measured by the % GFP positive cells
How it was run: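 Read-out: % GFP+ cells by FACS. SIR-transduced, puromycin-selected Jurkat NFAT-GFP (IL-2 promoter reporter) cocultured ~4–18 h with target line, E:T ~1:2; parental cells as control; graded +/−, +, 2+ relative to parental.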

[2] = FACS detection of CARs and SIRs by Myc and Protein L staining (cell surface expression); format: cell-based, human; details: staining with APC-conjugated Protein-L, Jurkat-NFAT-GFP cells
Procedure: FACS analysis. Mouse Anti-Human c-Myc APC-conjugated Monoclonal Antibody (Catalog #IC3696A) was from R&D Systems (Minneapolis, MN). Biotinylated protein L was purchased from GeneScript (Piscataway, NJ), reconstituted in phosphate buffered saline (PBS) at 1 mg/ml and stored at 4° C. Streptavidin-APC (SA1005) was purchased from ThermoFisher Scientific.
For detection of CARs and SIRs using Myc staining, 1×10^6 cells were harvested and washed three times with 3 ml of ice-cold 1×PBS containing 4% bovine serum albumin (BSA) wash buffer. After wash, cells were resuspended in 0.1 ml of the ice-cold wash buffer containing 10 μl of APC-conjugated Myc antibody and incubated in dark for 1 hour followed by two washings with ice cold wash buffer.
For detection of CARs and SIRs using Protein L staining, 1×10^6 cells were harvested and washed three times with 3 ml of ice-cold 1×PBS containing 4% bovine serum albumin (BSA) wash buffer. After wash, cells were resuspended in 0.1 ml of the ice-cold wash buffer containing 1 μg of protein L at 4° C. for 1 hour. Cells were washed three times with ice-cold wash buffer, and then incubated (in the dark) with 10 μl of APC-conjugated streptavidin in 0.1 ml of the wash buffer for 30 minutes followed by two washings with ice cold wash buffer. FACS was done using FACSVerse analyzer from BD Biosciences.

RAJI cells = test: Jurkat NFAT-GFP assay, coculture with RAJI cells; format: cell-based, human; details: GFP expression upon 18 hour co-culture with RAJI cells; Table 10B
Procedure: (B) Induction of NFAT promoter driven GFP expression. The control vector- and SIR-expressing Jurkat-NFAT-GFP cocultured for 4-24 hours with the target antigen-expressing cell line (described above) and their ability to bind to the target antigen is assayed by measuring induction of GFP expression using Flow Cytometry. Cellular supernatant is collected and assayed for the induction of cytokines (e.g., IL2).
Jurkat NFAT-GFP Assay For Synthetic Immune Receptors. The Jurkat-NFAT-GFP cells are engineered in such a way that the IL-2 promoter, which carries NFAT binding sites, is cloned upstream of the GFP gene. These cells have been used to study signaling via TCR and CAR. The different SIRs were stably expressed in Jurkat NFAT-GFP cells by lentiviral mediated gene transfer, followed by selection with puromycin. The SIR-expressing Jurkat-NFAT-GFP cells were cocultured with the target cells at E:T ratio of approximately 1:2 for approximately 4 hours to 18 hours. When the interaction between SIRs and their target antigen results in activation of the NFAT pathway, GFP expression is induced.
Induction of GFP expression by coculturing of Jurkat-NFAT-GFP cells expressing different SIR constructs and the different target cells was studied essentially as described previously (Wu, Roybal, Puchner, Onuffer, & Lim, 2015). GFP expression was monitored by FACS analysis. […] In panel B, Jurkat cells expressing SIR targeting CDH6 (Clone ID: 051716-J05), CD276 (Clone ID: 050516-Q06) and Her2/neu (Clone ID: 050516-I03) were incubated with SKOV3 (top) and […] (middle and bottom) cells, respectively. […] The Jurkat-NFAT-GFP cells were engineered to express different SIRs targeting other antigens and the experiment repeated upon coculture with the target cells expressing their respective target antigen. The Jurkat-NFAT-GFP (parental) cells were used as control. […] The names of different SIRs, their SEQ ID NOs, component antigen binding domains and TCR chains can be determined by reference to Tables 7A-7H. A SIR is considered positive in the assay in case the SIR expressing Jurkat-NFAT-GFP cells show greater % GFP positive cells when cultured with the target cell line as compared to parental Jurkat-NFAT-GFP cells. […] The signs +/−, +, 2+ etc. after the name of the cell lines indicate the relative degree of positivity on the Jurkat-NFAT-GFP assay as measured by the % GFP positive cells after culture of the SIR expressing Jurkat-NFAT-GFP cells with that cell line.

Row | Molecule | Median Survival (SKOV-3 cells) | NFAT-GFP ASSAY Positive Cell lines ([1]; coculture with A549 cells) | NFAT-GFP ASSAY Positive Cell lines ([1]; coculture with PC3 cells) | NFAT-GFP ASSAY Positive Cell lines ([1]; coculture with SKOV3 cells) | Prt-L-APC (%) [2] | NFAT-GFP (%) (RAJI cells)
1 | 121815-C05 (protein, Synthetic Immune Receptor (SIR)) MALPVTALLLPLALLLHAARPDELQMTQSPSSLSASVGDRVTITCRASQSISSYLNWYQQKPGQPPKLLIYWASTRESGVPDRFSGSESGTNYTLTISSLQPEDFATYFCQQSDSLPITFGQGTRLDIQLEGKPIPNPLLGLDSTGSGEDLKNVFPPEVAVFEPSKAEIAHTQKATLVCLATGFYPDHVELSWWVNGKEVHSGVCTDPQPLKEQPALNDSRYCLSSRLRVSATFWQNPRNHFRCQVQFYGLSENDEWTQDRAKPVTQIVSAEAWGRADCGITSASYHQGVLSATILYEILLGKATLYAVLVSALVLMAMVKRKDSRGRAKRSGSGATNFSLLKQAGDVEENPGPTSMDWIWRILFLVGAATGAHSFEEVQLLESGGGVVQPGRSLRLSCAASGFTFSSYGMHWVRQAPGKGLEWVAVISYDGSNKYYADSVKGRFTISRDNSKNTLYLQMNSLRAEDTAVYYCAKDMGWGSGWRPYYYYGMDVWGQGTTVTVSSTREQKLISEEDGSGIQNPDPAVYQLRDSKSSDKSVCLFTDFDSQTNVSQSKDSDVYITDKCVLDMRSMDFKSNSAVAWSNKSDFACANAFNNSIIPEDTFFPSSDVPCDVKLVEKSFETDTNLNFQNLSVIGFRILLLKVAGFNLLMTLRLWSSRAKRSGSGVKQTLNFDLLKLAGDVESNPGPSRGHMTEYKPTVRLATRDDVPRAVRTLAAAFADYPATRHTVDPDRHIERVTELQELFLTRVGLDIGKVWVADDGAAVAVWTTPESVEAGAVFAEIGPRMAELSGSRLAAQQQMEGLLAPHRPKEPAWFLATVGVSPDHQGKGLGSAVVLPGVEAAERAGVPAFLETSAPRNLPFYERLGFTVTADVEVPEGPRTWCMTRKPGA | 63 days | A549 (2+), Hela | 2+ | (+) | – | –
2 | 10493 (protein) MALPVTALLLPLALLLHAARPDVVMTQSPSSLSASVGDRVTITCRASQDISKYLNWYQQKPGKAPKLLIYHTSRLHSGVPSRFSGSGSGTDFTLTISSLQPEDFATYYCQQGNTLPYTFGGGTKVEIKLEDLKNVFPPEVAVFEPSEAEISHTQKATLVCLATGFYPDHVELSWWVNGKEVHSGVSTCPQPLKEQPALNDSRYCLSSRLRVSATFWQNPRNHFRCQVQFYGLSENDEWTQDRAKPVTQIVSAEAWGRADCGFTSESYQQGVLSATILYEILLGKATLYAVLVSALVLMAMVKRKDSRGRAKRSGSGATNFSLLKQAGDVEENPGPTSMDWIWRILFLVGAATGAHSFEQVQLQESGPGLVKPSQTLSLTCTVSGVSLPDYGVSWIRQPPGKGLEWIGVIWGSETTYYNSALKSRVLISVDTSKNQVSLKLSSVTAADTAVYYCARHYYYGGSYAMDYWGQGTTVTVSSTRIQNPDPAVYQLRDSKSSDKSVCLFTDFDSQTNVSQSKDSDVYICDKTVLDMRSMDFKSNSAVAWSNKSDFACANAFNNSIIPEDTFFPSPESSCDVKLVEKSFETDTNLNFQNLSVIGFRILLLKVAGFNLLMTLRLWSS | – | – | – | – | 9% | 1.35%
3 | 10494 (protein) MALPVTALLLPLALLLHAARPDVVMTQSPSSLSASVGDRVTITCRASQDISKYLNWYQQKPGKAPKLLIYHTSRLHSGVPSRFSGSGSGTDFTLTISSLQPEDFATYYCQQGNTLPYTFGGGTKVEIKLEDLKNVFPPEVAVFEPSEAEISHTQKATLVCLATGFYPDHVELSWWVNGKEVHSGVSTDPQPLKEQPALNDSRYCLCSRLRVSATFWQNPRNHFRCQVQFYGLSENDEWTQDRAKPVTQIVSAEAWGRADCGFTSESYQQGVLSATILYEILLGKATLYAVLVSALVLMAMVKRKDSRGRAKRSGSGATNFSLLKQAGDVEENPGPTSMDWIWRILFLVGAATGAHSFEQVQLQESGPGLVKPSQTLSLTCTVSGVSLPDYGVSWIRQPPGKGLEWIGVIWGSETTYYNSALKSRVLISVDTSKNQVSLKLSSVTAADTAVYYCARHYYYGGSYAMDYWGQGTTVTVSSTRIQNPDPAVYQLRDSKSSDKSVCLFTDFDSQTNVSQSKDSDVYICDKTVLDMRSMDFKSNSAVAWSNKSDFACANAFNNSIIPEDTFFPSPESSCDVKLVEKSFETDTNLNFQNLSVIGFRILLLKVAGFNLLMTLRLWSS | – | – | – | – | 7% | 0.9%
4 | 10495 (protein) MALPVTALLLPLALLLHAARPDVVMTQSPSSLSASVGDRVTITCRASQDISKYLNWYQQKPGKAPKLLIYHTSRLHSGVPSRFSGSGSGTDFTLTISSLQPEDFATYYCQQGNTLPYTFGGGTKVEIKLEDLKNVFPPEVAVFEPCEAEISHTQKATLVCLATGFYPDHVELSWWVNGKEVHSGVSTDPQPLKEQPALNDSRYCLSSRLRVSATFWQNPRNHFRCQVQFYGLSENDEWTQDRAKPVTQIVSAEAWGRADCGFTSESYQQGVLSATILYEILLGKATLYAVLVSALVLMAMVKRKDSRGRAKRSGSGATNFSLLKQAGDVEENPGPTSMDWIWRILFLVGAATGAHSFEQVQLQESGPGLVKPSQTLSLTCTVSGVSLPDYGVSWIRQPPGKGLEWIGVIWGSETTYYNSALKSRVLISVDTSKNQVSLKLSSVTAADTAVYYCARHYYYGGSYAMDYWGQGTTVTVSSTRIQNPDPAVCQLRDSKSSDKSVCLFTDFDSQTNVSQSKDSDVYITDKTVLDMRSMDFKSNSAVAWSNKSDFACANAFNNSIIPEDTFFPSPESSCDVKLVEKSFETDTNLNFQNLSVIGFRILLLKVAGFNLLMTLRLWSS | – | – | – | – | 0% | 1.99%
